Measured values reported in patent publication US20180244757A1.

Tests used:
[1] = molecular target: Heartland virus (HRTV) nucleocapsid (N) protein (Heartland virus (HRTV))
[2] = molecular target: Heartland virus (HRTV) nucleocapsid (N) protein (Heartland virus (HRTV)); assay: ELISA, purified HRTV coated on the plate, MAb titrated
[3] = molecular target: SFTSV antigen (SFTSV-infected Vero cells); assay: IFA on acetone-fixed SFTSV-infected Vero cells, MAb in doubling dilutions

B1: MAb 2BB7 (antibody, V domains shown)
VH: EVQLQQSGPDLVKPGASMKISCKASGYSFTAYTMNWVKQSHGKNLEWIGLISPYNGGTSYNQKFKGKATLTVDKSSSTAYMELLSLTSEDSAVYYCARQIGPYFDHWGQGTTLTVSS
VL: IVMTQTTPSSMYASLGERVTITCKASQDIKSSFSWFQQKPGKSPKTLIYRASRLVDGVPSRFSGSGSGQDSSLTISSLEYEDMGIYYCLQCDEFPYTFGGGTKLEIK
ELISA endpoint [1]: 24.4 ng/mL | ELISA endpoint titer [2]: 24.4 ng/mL

B2: MAb 2AG9 (antibody, V domains shown)
VH: ELARPGASVKLSCKASGYTFTNYYMQWIKQRPGQGLEWIGAVYPGDGDTRYTQKFKGKASLTADKSSTTAYMQLSSLASEDSAVYYCTRGDYEGTWFTYWGQGTLVTVSA
VL: DIVMTQTTAIMSASPGEKVTMTCSASSSVSYMHWYQQKSGTSPKRWMYDTSKLASGVPGRFSGSGSGTTYSLTISTMEAEDAATYYCQQWSSNPPTFGGGTKLEIK
ELISA endpoint [1]: 1.53 ng/mL | ELISA endpoint titer [2]: 1.53 ng/mL

B3: MAb 2AG8 (antibody, V domains shown)
VH: VKLEESGAELVRSGASLKMSCKASGYTFTSYNLHWVKQTPGQGLEWIGYIFPGNGGTAYNEKFKGKATLTADTSSSTAYMQISSLTSEDSAVYFCARGGPYYALDYWGQGTSVTVSS
VL: DIVMTQSPASLSASVGETVTITCRTSGNIHTYLAWYQHKQGKSPQLLVYYAKTLADGVPSRFSGSGSGTQYSLKINSLQPEDFGSYYCQHFWSNPRTFGGGTKLEIKR
ELISA endpoint [1]: 0.381 ng/mL | ELISA endpoint titer [2]: 0.381 ng/mL

B4: MAb 2BA2 (antibody, V domains shown)
VH: VQLQESGPGLVKPSQPLSLTCSVTGYSITSAYYWNWIRQFPGNKLEWMGYITYDGTNNYNPSLKNRISITRDTSKNQFFLKLNSVTTEDTASYYCARDVATVGAMDYWGQGTSVTVSS
VL: SIVMTQTPKFLLVSAGDRVTITCKASQSVSNDVAWYQQKPGQSPKLLIYFASNRYTGVPDRFTGSGYGTDFTFTISTVLAEDLALYFCQQDYSSPRTFGGGTKLEVK
ELISA endpoint [1]: 39.1 ng/mL | ELISA endpoint titer [2]: 39.1 ng/mL

B5: MAb 2BB5 (antibody, V domains shown)
VH: EVQLEESGGGLVQPGGSMKLSCVASGFTFSNYWMNWVRQSPEKGLEWVAEVRLNSNNYATHYAESVKGRFTISRDDSKSSVYLQMSNLRSEDTGIYYCSTDYYGYAMDYWGQGTSVTVSS
VL: DIVMTQTPSIMSASPGEKVTITCSASSNVNYMHWFQQKPGTSPKLWIYSTSNLASGVPARFSGSGSGTSYSLTISRMEAEDAATYYCQQRSNYPPTFGAGTKLELK
ELISA endpoint [1]: 0.156 ng/mL | ELISA endpoint titer [2]: 0.156 ng/mL

B6: MAb 2BB8 (antibody, V domains shown)
VH: QAYLQQSGAELVRSGASLKMSCKASGYTFTSYNLHWVKQTPGQGLEWIGYIFPGNGGTAYNEKFKGKATLTADTSSSTAYMQISSLTSEDSAVYFCARGGPYYALDYWGQGTSVTVSS
VL: DIQMTQSPASLSASVGETVTITCRTSGNIHTYLAWYQHKQGKSPQLLVYYAKTLADGVPSRFSGSGSGTQYSLKINSLQPEDFGSYYCQHFWSNPRTFGGGTKLEIK
ELISA endpoint [1]: 0.61 ng/mL | ELISA endpoint titer [2]: 0.61 ng/mL

B7: MAb 2AF11 (antibody, V domains shown)
VH: QVTLKESGPGILQPSQTLSLTCSFSGFSLSTSGMSVGWIRQPSGKGLEWLAHIWWNDDMYYNPALESRLTISKDTSNNQVFLKIASVVTADTATYYCARIALTGPYWYFDVWGAGTTVTVSS
VL: DIVMTQTPASLSASVGETVTITCRASENIYSYLAWYQQKQGKSPQLLVNNAKTLAEGVPSRFSGSGSGTQFSLKINSLQPEDCGNYYCQHHYGTPLTFGAGTKLELK
ELISA endpoint [1]: 10000 ng/mL | IFA endpoint titer [3]: 1 µg/mL

B8: MAb 2BB6 (antibody, V domains shown)
VH: EVQLEESGPDLVKPSQSLSLTCTVTGFSITSGYSWHWIRQFPGNKLEWMGYIHFSGSTNYNPSLKSRISITRDTSKNQFFLQLSSVTTDDTGTYYCARDLTGIDSWGQGTTLTVSS
VL: DIVMTQTPAIMSASPGEKVTISCSASSSVSYMYWFQQKPGSSPKPWIYRTSNLASGVPARFSGSGSGTSYSVTISSMEAEDAATYYCQQYHSYPLTFGAGTKLELK
ELISA endpoint [1]: 10000 ng/mL
